Consider one substance from paper doi:10.1101/2021.08.16.456468.

The target of this experiment is DnaD^7A, purified (B. subtilis) (UniProt P39787). Nature of the experiment: SEC. (SEC sorts molecules by how far they enter the pores of the column.)

“DnaD^7A, purified (from UniProt P39787 1-232) (natural protein)”: the stoichiometry N (usually a count of units in the complex or per binding partner) amounted to 4.
